# Results from patent US20240132603A1 (HARBOUR BIOMED US, published 2024).
# Changes are numbered by the printed parent chain. In names and notes the source's numbering stands.
# B1: PR004666 (antibody, human IgG1, kappa)
# heavy: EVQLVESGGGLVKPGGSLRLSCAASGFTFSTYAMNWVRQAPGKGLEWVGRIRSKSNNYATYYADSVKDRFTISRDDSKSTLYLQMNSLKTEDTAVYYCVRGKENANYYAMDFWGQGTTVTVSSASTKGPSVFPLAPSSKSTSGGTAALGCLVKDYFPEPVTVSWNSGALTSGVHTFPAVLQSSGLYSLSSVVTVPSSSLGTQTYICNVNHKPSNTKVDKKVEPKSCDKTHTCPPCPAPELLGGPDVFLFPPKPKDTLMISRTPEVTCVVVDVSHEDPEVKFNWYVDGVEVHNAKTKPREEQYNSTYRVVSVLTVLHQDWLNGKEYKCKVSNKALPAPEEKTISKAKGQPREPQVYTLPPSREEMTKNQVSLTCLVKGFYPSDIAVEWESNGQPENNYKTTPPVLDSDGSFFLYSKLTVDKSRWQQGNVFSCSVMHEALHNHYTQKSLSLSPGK
# light: DIVMTQSPLSLPVTLGQPASISCRSSKSLLHSNAKIYLYWFQQRPGQSPRLLIYRMSNLASGVPDRFSGSGSGTDFTLKISRVEAEDVGVYYCMQHLEYPLTFGQGTKLEIKRTVAAPSVFIFPPSDEQLKSGTASVVCLLNNFYPREAKVQWKVDNALQSGNSQESVTEQDSKDSTYSLSSTLTLSKADYEKHKVYACEVTHQGLSSPVTKSFNRGEC
# notes: PTM site-removed humanized variant of PR004128, IgG1 with DE mutation
# B2: PR004249 (antibody, human IgG1, kappa)
# heavy: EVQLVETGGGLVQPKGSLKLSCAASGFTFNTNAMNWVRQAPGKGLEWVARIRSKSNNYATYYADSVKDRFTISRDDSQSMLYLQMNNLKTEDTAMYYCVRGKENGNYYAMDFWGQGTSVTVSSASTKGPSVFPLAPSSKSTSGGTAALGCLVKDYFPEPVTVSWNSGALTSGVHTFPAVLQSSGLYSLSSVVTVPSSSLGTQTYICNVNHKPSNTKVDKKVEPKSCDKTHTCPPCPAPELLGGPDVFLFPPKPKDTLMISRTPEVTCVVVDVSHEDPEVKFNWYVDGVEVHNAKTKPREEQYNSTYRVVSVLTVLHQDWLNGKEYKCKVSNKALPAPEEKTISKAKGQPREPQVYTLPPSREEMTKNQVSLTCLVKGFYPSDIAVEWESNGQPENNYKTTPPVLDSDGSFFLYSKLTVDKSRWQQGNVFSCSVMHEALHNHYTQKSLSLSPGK
# light: DIVMTQAAPSVPVTPGESVSISCRSSKSLLHSNGNTYLYWFLQRPGQSPQLLIYRMSNLASGVPDRFSGSGSGTAFTLRISRVEAEDVGVYYCMQHLEYPLTFGAGTKLELKRTVAAPSVFIFPPSDEQLKSGTASVVCLLNNFYPREAKVQWKVDNALQSGNSQESVTEQDSKDSTYSLSSTLTLSKADYEKHKVYACEVTHQGLSSPVTKSFNRGEC
# notes: PR004122 with S239D and I332E (DE) in the IgG1 constant region
# B3: PR004252 (antibody, human IgG1, kappa)
# heavy: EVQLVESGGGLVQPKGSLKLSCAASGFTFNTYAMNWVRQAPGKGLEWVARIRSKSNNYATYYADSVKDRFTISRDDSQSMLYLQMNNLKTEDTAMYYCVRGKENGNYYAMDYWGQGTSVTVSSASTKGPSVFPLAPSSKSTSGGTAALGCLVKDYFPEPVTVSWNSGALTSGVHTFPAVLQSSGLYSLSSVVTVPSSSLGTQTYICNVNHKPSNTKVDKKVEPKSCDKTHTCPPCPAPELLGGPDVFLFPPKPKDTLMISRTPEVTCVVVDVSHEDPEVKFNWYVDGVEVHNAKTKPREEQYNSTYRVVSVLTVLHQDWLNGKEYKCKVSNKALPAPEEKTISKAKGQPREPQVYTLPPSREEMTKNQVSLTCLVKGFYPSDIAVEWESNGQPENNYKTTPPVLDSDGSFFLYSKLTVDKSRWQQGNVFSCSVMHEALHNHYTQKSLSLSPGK
# light: B2 light with S26N, L111I
# notes: PR004131 with S239D and I332E (DE) in the IgG1 constant region
# B4: PR004251 (antibody, human IgG1, kappa)
# heavy: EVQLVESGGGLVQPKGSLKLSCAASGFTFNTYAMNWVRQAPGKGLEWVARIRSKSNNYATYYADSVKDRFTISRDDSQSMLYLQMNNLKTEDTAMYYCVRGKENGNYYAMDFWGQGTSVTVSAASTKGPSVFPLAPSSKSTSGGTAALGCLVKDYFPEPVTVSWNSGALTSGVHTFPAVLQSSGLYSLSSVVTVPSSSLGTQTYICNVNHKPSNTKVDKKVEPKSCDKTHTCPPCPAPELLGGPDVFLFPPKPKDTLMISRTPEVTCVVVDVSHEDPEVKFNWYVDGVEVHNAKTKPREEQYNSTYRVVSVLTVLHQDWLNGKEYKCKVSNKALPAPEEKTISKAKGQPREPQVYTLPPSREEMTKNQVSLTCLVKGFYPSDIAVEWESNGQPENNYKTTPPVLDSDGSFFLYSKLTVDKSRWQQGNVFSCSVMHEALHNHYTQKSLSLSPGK
# light: B2 light with N35K, T36I, L111I
# notes: PR004128 with S239D and I332E (DE) in the IgG1 constant region
# B5: PR004662 (antibody, human IgG1, kappa, V domains shown)
# VH: EVQLVESGGGLVQPGGSLRLSCAASGFTFSTYAMNWVRQAPGKGLEWVSRIRSKSNNYATYYADSVKDRFTISRDDSKSTLYLQMNSLRAEDTAVYYCVRGKENANYYAMDFWGQGTTVTVSS
# VL: DIVMTQSPLSLPVTPGEPASISCRSSKSLLHSNAKIYLYWFLQKPGQSPQLLIYRMSNLASGVPDRFSGSGSGTDFTLKISRVEAEDVGVYYCMQHLEYPLTFGQGTKLEIKR
# notes: as for B1
# B6: PR004665 (antibody, human IgG1, kappa, V domains shown)
# VH: B5 VH with Q13K, S49G, R89K, A90T, N104Q, A105G
# VL: B5 VL with P15L, E17Q, A34G, L42Q, K44R, Q50R
# notes: as for B1
# B7: PR004667 (antibody, human IgG1, kappa, V domains shown)
# VH: B5 VH with Q13K, S49G, R89K, A90T, N104Q, A105G
# VL: B5 VL with P15L, E17Q, L42Q, K44R, Q50R
# notes: as for B1
# B8: PR004664 (antibody, human IgG1, kappa, V domains shown)
# VH: B5 VH with Q13K, S49G, R89K, A90T
# VL: B5 VL with P15L, E17Q, A34G, L42Q, K44R, Q50R
# notes: as for B1
# B9: PR004663 (antibody, human IgG1, kappa, V domains shown)
# VH: B5 VH with N104Q, A105G
# VL: B5 VL
# notes: as for B1
# B10: PR005750 (Fab, V domains shown)
# VH: B5 VH with Q13K, S49G, R89K, A90T
# VL: B5 VL with P15L, E17Q, L42Q, K44R, Q50R
# notes: Fab form of the same variable region as PR004666
# B11: PR005751 (Fab, V domains shown)
# VH: B5 VH with Q13K, S49G, R89K, A90T, N104H, A105G
# VL: B5 VL with P15L, E17Q, L42Q, K44R, Q50R
# B12: PR005752 (Fab, V domains shown)
# VH: B5 VH with Q13K, S49G, N57Y, R89K, A90T, N104H, A105G
# VL: B5 VL with P15L, E17Q, L42Q, K44R, Q50R
# B13: PR005753 (Fab, V domains shown)
# VH: B5 VH with Q13K, S49G, R89K, A90T, N104I, A105G
# VL: B5 VL with P15L, E17Q, L42Q, K44R, Q50R
# B14: PR005763 (Fab, V domains shown)
# VH: B5 VH with Q13K, S49G, N57Y, R89K, A90T, N104H, A105G, N106K
# VL: B5 VL with P15L, E17Q, L42Q, K44R, Q50R
# B15: PR005754 (Fab, V domains shown)
# VH: B5 VH with Q13K, S49G, N57Y, R89K, A90T, N104I, A105G
# VL: B5 VL with P15L, E17Q, L42Q, K44R, Q50R
# Molecular target: T1, human CCR8 (human, UniProt P51685 1-355)
# T1 construct: whole, on cells; construct used for the overexpressing cell lines is not described; also called hCCR8
# Assay: FACS, CHO-K1-hCCR8 cells
# How it was run: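 Cells are harvested with pancreatin and brought to 1E6 cells/mL. They then receive anti-CCR8 antibody (5-fold series, top 200 nM, 1 h, 4 °C), washes, secondary antibody (1:1000, 40 min, 4 °C) and FACS analysis.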
# T1 sequence (P51685 whole entry): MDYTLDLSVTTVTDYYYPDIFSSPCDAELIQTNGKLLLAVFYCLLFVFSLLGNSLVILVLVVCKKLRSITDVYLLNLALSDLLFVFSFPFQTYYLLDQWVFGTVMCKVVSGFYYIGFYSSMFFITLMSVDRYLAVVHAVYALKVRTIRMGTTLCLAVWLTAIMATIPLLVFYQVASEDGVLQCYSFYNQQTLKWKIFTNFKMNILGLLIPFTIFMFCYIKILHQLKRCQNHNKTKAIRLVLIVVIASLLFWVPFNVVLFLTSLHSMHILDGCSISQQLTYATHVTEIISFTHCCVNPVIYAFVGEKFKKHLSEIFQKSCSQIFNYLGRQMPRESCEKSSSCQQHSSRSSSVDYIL
row,EC50 [nM],Binder
1,0.44,B1

# Molecular target: T1, human CCR8
# Assay: FACS, HEK293-hCCR8 cells
# Procedure: (§1) Cells overexpressing human CCR8 were digested with pancreatin, counted and resuspended to a cell density of 1E6 cells/mL. The cell suspension was added to a 96-well V-bottom plate at 100 μL/well and centrifuged at 300 g for 5 min, and the supernatant was discarded. The anti-CCR8 antibodies provided herein was used as a primary antibody and diluted in a 5-fold gradient with an FACS buffer (DPBS containing 2% FBS) from 200 nM. The diluted primary antibody was added at 100 μL/well to resuspend the cells, and the mixture was incubated at 4° C. for 1 h. The plate was washed twice with DPBS and centrifuged at 300×g for 5 min, and the supernatant was discarded. The secondary antibody diluted in a 1:1000 ratio with an FACS buffer was added at 100 μL/well to suspend the cells, and the mixture was incubated at 4° C. for 40 min. The plate was washed twice with DPBS and centrifuged at 300×g for 5 min, and the supernatant was discarded. DPBS was added at 200 μL/well to suspend the cells, and the mixture was loaded on an FACS machine for analysis.
row,EC50 [nM],Binder
1,1.22,B2
2,0.98,B3
3,3.69,B4

# Molecular target: T1, human CCR8
# Assay: FACS, CHO-K1-hCCR8 cells
# Remark: another data set of the same source
# Procedure: as §1
row,EC50 [nM],Binder
1,0.681,B5
2,0.341,B6
3,0.279,B7
4,0.365,B8
5,0.286,B9
6,0.466,B1

# Molecular target: T2, cynomolgus monkey CCR8 (cynomolgus monkey, UniProt G7NYJ2 1-355)
# T2 construct: whole, on cells; also called CynoCCR8
# Assay: FACS, CHO-K1-CynoCCR8 cells
# Procedure: as §1, with “cynomolgus monkey CCR8, CHO-K1-CynoCCR8,” for “human CCR8”
# T2 sequence (G7NYJ2 entry or part of it): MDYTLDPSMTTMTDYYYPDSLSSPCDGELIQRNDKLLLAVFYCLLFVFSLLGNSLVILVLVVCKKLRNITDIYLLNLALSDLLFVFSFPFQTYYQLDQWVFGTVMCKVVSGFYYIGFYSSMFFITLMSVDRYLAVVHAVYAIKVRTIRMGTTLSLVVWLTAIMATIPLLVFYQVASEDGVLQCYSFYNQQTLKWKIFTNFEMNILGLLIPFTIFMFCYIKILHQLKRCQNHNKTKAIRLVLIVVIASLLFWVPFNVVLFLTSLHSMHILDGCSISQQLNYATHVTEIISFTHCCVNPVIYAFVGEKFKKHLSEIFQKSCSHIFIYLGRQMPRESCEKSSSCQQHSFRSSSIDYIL
row,EC50 [nM],Binder
1,0.37,B1

# Molecular target: T2, cynomolgus monkey CCR8
# Assay: FACS, CHO-K1-CynoCCR8 cells
# Remark: another data set of the same source
# Procedure: as §1, with “cynomolgus monkey CCR8, CHO-K1-CynoCCR8,” for “human CCR8”
row,EC50 [nM],Binder
1,3.42,B2
2,3.32,B3
3,8.26,B4

# Molecular target: T1, human CCR8
# Assay: FACS, CHO-K1-hCCR8 cells, Fab
# Procedure: as §1
row,EC50 [nM],Binder
1,1.56,B10
2,1.1,B11
3,0.69,B12
4,1.19,B13
5,0.62,B14
6,0.84,B15
